Results from patent publication US20100074906A1.

B1: FLAGhis-tagged DDF-VZV1 human Fab expressed using pDLac-VZV1-FLAGhis (Fab)
heavy: LESGPGLVKPSETLSLTCSVSGGSITTKDFSWAWIRQPPGKGLEWIGSIYYSGTTHYSPSLKSRVIMSVDTSDNKFSLSLTSVTAADTAVYYCARQLGRSPGIYSFWRDHRTSAFDFWGQGTLATVSAASTKGPSVFPLAPSSKSTSGGTAALGCLVKDYFPEPVTVSWNSGALTSGVHTFPAVLQSSGLYSLSSVVTVPSSSLGTQTYICNVNHKPSNTKVDKKVEPKSCDKTSDYKDDDDKHHHHHH
light: ELTQSPSSLSASVGDRVTITCRATQSISSYLSWYQQKPGQAPKLLIYGASNLQSGVPSRFSGSGSGTDFTLTINSLQPEDFATYYCQQTLSTPFTFGPGTRVDFKRTVAAPSVFIFPPSDEQLKSGTASVVCLLNNFYPREAKVQWKVDNALQSGNSQESVTEQDSKDSTYSLSSTLTLSKADYEKHKVYACEVTHQGLSSPVTKSFNRGEC
B2: FLAGhis-tagged DDF-VZV2 human Fab expressed using pDLac-VZV2-FLAGhis (Fab)
heavy: LESGGGLVQPGGSLRLSCEASGFTFSSYTMNWVRQAPGKGLEWVSWISSSGSDIYYAESVKGRFTISRDNAKNSLYLQMNSLRDEDTALYYCARDGIDSSSSWGGEPYFYTMDFWGQGTTVIVSSASTKGPSVFPLAPSSKSTSGGTAALGCLVKDYFPEPVTVSWNSGALTSGVHTFPAVLQSSGLYSLSSVVTVPSSSLGTQTYICNVNHKPSNTKVDKKVEPKSCDKTSDYKDDDDKHHHHHH
light: not shown

Target: Varicella Zoster Virus (VZV) antigens (lysate of VZV-infected MRC-5 cells, VZV-infected MRC-5 cells, cell-free VZV; ELLEN strain) (Varicella Zoster Virus (ELLEN strain, ATCC VR-586))
Experiment: cell-based or functional assay

Row | Binder | VZV-neutralizing activity, IC50 (plaque reduction) [µg/mL]
1 | B1 | 2
2 | B2 | 2
